Assays:
Drosophila Ras1 = Drosophila Ras1 (Drosophila, UniProt P08646); assay: yeast two-hybrid system or bacterially-expressed fusion proteins
Dsor1 (D-MEK) = Dsor1 (D-MEK) (Drosophila, UniProt Q24324); assay: yeast two-hybrid

B1: Drosophila melanogaster kinase suppressor of ras (Ksr) (enzyme)
chain: MSSNNNAPASAPDTGSTNANDPISGSLSVDSNLVIIQDMIDLSANHLEGLRTQCAISSTLTQQEIRCLESKLVRYFSELLLAKMRLNERIPANGLVPHTTGNELRQWLRVVGLSQGTLTACLARLTTLEQSLRLSDEEIRQLLADSPSQREEEELRRLTRAMQNLRKCMESLESGTAASNNDPEQWHWDSWDRPTHIHRGSVGNIGLGNNSTASPRTHHRQHGVKGKNSALANSTNFKSGRQSPSATEELNSTQGSQLTLTLTPSPPNSPFTPSSGLSSSLNGTPQRSRGTPPPARKHQTLLSQSHVQVDGEQLARNRLPTDPSTDSHSSTSSDIFVDPNTNASSGGSSSNVLMVPCSPGVGHVGMGHAIKHRFTKALGFMATCTLCQKQVFHRWMKCTDCKYICHKSCAPHVPPSCGLPREYVDEFRHIKEQGGYASLPHVHGAAKGSPLVKKSTLGKPLHQQHGDSSSPSSSCTSSTPSSPALFQQRERELDQAGSSSSANLLPTPSLGKHQPSQFNFPNVTVTSSGGSGGVSLISNEPVPEQFPTAPATANGGLDSLVSSSNGHMSSLIGSQTSNASTAATLTGSLVNSTTTTSTCSFFPRKLSTAGVDKRTPFTSECTDTHKSNDSDKTVSLSGSASTDSDRTPVRVDSTEDGDSGQWRQNSISLKEWDIPYGDLLLLERIGQGRFGTVHRALWHGDVAVKLLNEDYLQDEHMLETFRSEVANFKNTRHENLVLFMGACMNPPYLAIVTSLCKGNTLYTYIHQRREKFAMNRTLLIAQQIAQGMGYLHAREIIHKDLRTKNIFIENGKVIITDFGLFSSTKLLYCDMGLGVPHNWLCYLAPELIRALQPEKPRGECLEFTPYSDVYSFGTVWYELICGEFTFKDQPAESIIWQVGRGMKQSLANLQSGRDVKDLLMLCWTYEKEHRPQFARLLSLLEHLPKKRLARSPSHPVNLSRSAESVF
- binding result (Drosophila Ras1): no binding
- binding result (Dsor1 (D-MEK)): no binding
